B1: CA11 Fab (Fab, V domains shown)
VH: EVQLQQSGPELVKPGASVKMSCKASGYTFTRSVMHWVKQKPGQGLEWIGYINPYNDGTKYNEKFKGKATLTSDKSSSTAYMELSSLTSEDSAVYYCAKSGNDGYWGQGTTLTVSS
VL: EIVLTQSPTTMAASPGEKITITCSASSSISSIYLHWYQQKPGFSPKVLIYRAKNLASGVPARFSGSGSGTSYSLTIGTMEAEDVATYYCQQGSTIPFTFGSGTKLEIK
B2: CA11 antibody (mouse IgG1/kappa) (antibody, V domains shown)
VH: EVQLQQSGPELVKPGASVKMSCKASGYTFTRSVMHWVKQKPGQGLEWIGYINPYNDGTKYNEKFKGKATLTSDKSSSTAYMELSSLTSEDSAVYYCAKSGNDGYWGQGTTLTVSS
VL: EIVLTQSPTTMAASPGEKITITCSASSSISSIYLHWYQQKPGFSPKVLIYRAKNLASGVPARFSGSGSGTSYSLTIGTMEAEDVATYYCQQGSTIPFTFGSGTKLEIKR

Columns and labels:
[1] = biological target: N-terminal biotin labelled human CGRP (Abgent Custom Synthesized Peptide #355061532) (human) (UniProt P06881); test: ELISA; Fab captured on anti-human kappa; N-terminal biotin CGRP at 20 nM; 2 h dissociation step; neutravidin-AP detection
[2] = biological target: N-terminal biotin labelled human CGRP (Abgent Custom Synthesized Peptide #355061532) (human) (UniProt P06881); test: ELISA; Fab captured on anti-human kappa; N-terminal biotin CGRP at 0.741 nM; 2 h dissociation step; neutravidin-AP detection
[3] = biological target: N-terminal biotin labelled human CGRP (Abgent Custom Synthesized Peptide #355061532) (human) (UniProt P06881); test: ELISA; Fab captured on anti-human kappa; N-terminal biotin CGRP at 0.027 nM; 2 h dissociation step; neutravidin-AP detection
[4] = biological target: N-terminal biotin labelled human CGRP (Abgent Custom Synthesized Peptide #355061532) (human) (UniProt P06881); test: ELISA; Fab captured on anti-human kappa; N-terminal biotin CGRP at 0.247 nM; 2 h dissociation step; neutravidin-AP detection
[5] = biological target: N-terminal biotin labelled human CGRP (Abgent Custom Synthesized Peptide #355061532) (human) (UniProt P06881); test: ELISA; Fab captured on anti-human kappa; N-terminal biotin CGRP at 2.222 nM; 2 h dissociation step; neutravidin-AP detection
[6] = biological target: N-terminal biotin labelled human CGRP (Abgent Custom Synthesized Peptide #355061532) (human) (UniProt P06881); test: ELISA; Fab captured on anti-human kappa; N-terminal biotin CGRP at 0.082 nM; 2 h dissociation step; neutravidin-AP detection
[7] = biological target: N-terminal biotin labelled human CGRP (Abgent Custom Synthesized Peptide #355061532) (human) (UniProt P06881); test: ELISA; Fab captured on anti-human kappa; N-terminal biotin CGRP at 0.009 nM; 2 h dissociation step; neutravidin-AP detection
[8] = biological target: N-terminal biotin labelled human CGRP (Abgent Custom Synthesized Peptide #355061532) (human) (UniProt P06881); test: ELISA; Fab captured on anti-human kappa; N-terminal biotin CGRP at 6.667 nM; 2 h dissociation step; neutravidin-AP detection
human CGRP (human) [9] = biological target: human CGRP (human) (UniProt P06881); test: Quanterix Simoa sandwich assay; Antibody II beads capture, biotinylated CA11 detection; CGRP at 5.56 pg/mL
human CGRP (human) [10] = biological target: human CGRP (human) (UniProt P06881); test: Quanterix Simoa sandwich assay; Antibody II beads capture, biotinylated CA11 detection; CGRP at 0.62 pg/mL
human CGRP (human) [11] = biological target: human CGRP (human) (UniProt P06881); test: Quanterix Simoa sandwich assay; Antibody II beads capture, biotinylated CA11 detection; CGRP at 0.0076 pg/mL
human CGRP (human) [12] = biological target: human CGRP (human) (UniProt P06881); test: Quanterix Simoa sandwich assay; Antibody II beads capture, biotinylated CA11 detection; CGRP at 0.07 pg/mL
human CGRP (human) [13] = biological target: human CGRP (human) (UniProt P06881); test: Quanterix Simoa sandwich assay; Antibody II beads capture, biotinylated CA11 detection; CGRP at 1.85 pg/mL
human CGRP (human) [14] = biological target: human CGRP (human) (UniProt P06881); test: Quanterix Simoa sandwich assay; Antibody II beads capture, biotinylated CA11 detection; CGRP at 0.21 pg/mL
human CGRP (human) [15] = biological target: human CGRP (human) (UniProt P06881); test: Quanterix Simoa sandwich assay; Antibody II beads capture, biotinylated CA11 detection; CGRP at 50 pg/mL
human CGRP (human) [16] = biological target: human CGRP (human) (UniProt P06881); test: Quanterix Simoa sandwich assay; Antibody II beads capture, biotinylated CA11 detection; CGRP at 16.67 pg/mL
human CGRP (human) [17] = biological target: human CGRP (human) (UniProt P06881); test: Quanterix Simoa sandwich assay; Antibody II beads capture, biotinylated CA11 detection; CGRP at 0.02 pg/mL

Row | Binder | A560 [1] | A560 [2] | A560 [3] | A560 [4] | A560 [5] | A560 [6] | A560 [7] | A560 [8] | Average AEB (AEB (average enzyme per bead)) (human CGRP (human) [9]) | Average AEB (AEB (average enzyme per bead)) (human CGRP (human) [10]) | Average AEB (AEB (average enzyme per bead)) (human CGRP (human) [11]) | Average AEB (AEB (average enzyme per bead)) (human CGRP (human) [12]) | Average AEB (AEB (average enzyme per bead)) (human CGRP (human) [13]) | Average AEB (AEB (average enzyme per bead)) (human CGRP (human) [14]) | Average AEB (AEB (average enzyme per bead)) (human CGRP (human) [15]) | Average AEB (AEB (average enzyme per bead)) (human CGRP (human) [16]) | Average AEB (AEB (average enzyme per bead)) (human CGRP (human) [17])
1 | B1 | 1.05 A560 | 0.356 A560 | 0.063 A560 | 0.165 A560 | 0.688 A560 | 0.091 A560 | 0.082 A560 | 1.03 A560 | – | – | – | – | – | – | – | – | –
2 | B2 | – | – | – | – | – | – | – | – | 0.42 | 0.06 | 0.0079 | 0.011 | 0.13 | 0.02 | 2.99 | 1.18 | 0.0075
